Experimental data taken from patent US20200040059A1.

T1: CD96 (UniProt P40200)
T1 sequence (looked up): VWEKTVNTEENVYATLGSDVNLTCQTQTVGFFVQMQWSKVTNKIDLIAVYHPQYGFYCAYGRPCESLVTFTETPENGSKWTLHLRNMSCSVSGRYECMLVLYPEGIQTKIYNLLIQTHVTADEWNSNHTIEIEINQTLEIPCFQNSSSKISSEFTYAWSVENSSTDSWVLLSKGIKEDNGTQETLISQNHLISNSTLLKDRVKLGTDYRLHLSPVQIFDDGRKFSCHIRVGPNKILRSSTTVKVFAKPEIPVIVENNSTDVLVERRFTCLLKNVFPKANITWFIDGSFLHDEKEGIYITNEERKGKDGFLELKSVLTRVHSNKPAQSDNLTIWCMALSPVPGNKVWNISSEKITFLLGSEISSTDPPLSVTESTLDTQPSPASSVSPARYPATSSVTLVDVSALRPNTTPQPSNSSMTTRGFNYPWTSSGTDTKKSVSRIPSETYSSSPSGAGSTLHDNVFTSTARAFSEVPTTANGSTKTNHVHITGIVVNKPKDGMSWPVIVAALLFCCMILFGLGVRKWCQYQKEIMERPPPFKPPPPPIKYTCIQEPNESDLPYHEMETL

T2: CD226 (human) (UniProt Q15762)
T2 sequence: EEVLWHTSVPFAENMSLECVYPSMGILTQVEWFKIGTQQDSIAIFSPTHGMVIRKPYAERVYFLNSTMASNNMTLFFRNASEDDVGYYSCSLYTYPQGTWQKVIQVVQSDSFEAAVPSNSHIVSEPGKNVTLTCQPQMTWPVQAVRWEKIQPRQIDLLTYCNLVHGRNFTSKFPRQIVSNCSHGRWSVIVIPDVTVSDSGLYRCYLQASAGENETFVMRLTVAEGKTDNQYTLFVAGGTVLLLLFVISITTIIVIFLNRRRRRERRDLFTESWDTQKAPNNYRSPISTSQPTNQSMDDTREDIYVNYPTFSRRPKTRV

T3: TIGIT (human) (UniProt Q495A1)
T3 sequence: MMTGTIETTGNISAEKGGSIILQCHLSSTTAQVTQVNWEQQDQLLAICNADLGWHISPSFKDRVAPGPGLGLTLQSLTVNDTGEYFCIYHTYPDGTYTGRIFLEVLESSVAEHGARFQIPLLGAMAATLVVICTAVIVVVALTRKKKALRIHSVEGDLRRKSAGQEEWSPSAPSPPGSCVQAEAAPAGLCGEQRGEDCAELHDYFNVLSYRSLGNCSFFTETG


Tests used:
CD96 [1] = molecular target: T1, CD96; assay: flow cytometry, CD96-expressing cells
CD226 (human) [2] = molecular target: T2, CD226 (human); assay: flow cytometry, CD226-expressing cells
CD226 (human) [3] = molecular target: T2, CD226 (human); assay: flow cytometry, cells expressing target, 25 nM
CD96 [4] = molecular target: T1, CD96; assay: flow cytometry, cells expressing target, 25 nM
CD112R (human) = CD112R (human) (UniProt Q6DKI7); assay: flow cytometry, cells expressing target, 25 nM
Sequence of CD112R (human) (Q6DKI7 whole entry): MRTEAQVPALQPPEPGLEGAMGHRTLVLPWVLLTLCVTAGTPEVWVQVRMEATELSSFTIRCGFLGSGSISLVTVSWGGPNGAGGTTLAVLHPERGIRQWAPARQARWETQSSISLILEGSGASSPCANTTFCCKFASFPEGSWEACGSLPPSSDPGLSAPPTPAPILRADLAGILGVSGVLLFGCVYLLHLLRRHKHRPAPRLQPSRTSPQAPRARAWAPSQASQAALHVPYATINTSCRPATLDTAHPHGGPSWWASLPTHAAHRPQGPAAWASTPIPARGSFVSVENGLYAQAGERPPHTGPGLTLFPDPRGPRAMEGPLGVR

TIGIT (human) = molecular target: T3, TIGIT (human); assay: flow cytometry, cells expressing target, 25 nM

Binder	MFI at 11.1 nM (CD96 [1]) [MFI]	MFI at 11.1 nM (CD226 (human) [2]) [MFI]	MFI at 25 nM (CD226 (human) [3]) [MFI]	MFI at 25 nM (CD96 [4]) [MFI]	MFI at 25 nM (CD112R (human)) [MFI]	MFI at 25 nM (TIGIT (human)) [MFI]	other results
CD155 variant IgV-Fc P18T, T45Q, T61R, S65N, S67L (Fc fusion, not shown: a dimerising Fc or GST; small tags and cut ends) PGTGDVVVQAPTQVTGFLGDSVTLPCYLQVPNMEVTHVSQLQWARHGESGSMAVFHQRQGPNYLESKRLEFVAARLGAELRNASLRMFGLRVEDEGNYTCLFVTFPQGSRSVDIWL							MFI at 100 nM (CD96 [1]): 22800 MFI
CD155 variant IgV-Fc V9L, P18S, Q60R, V75L, L79P, R89K, F91S, L104E, G111R (Fc fusion, not shown: a dimerising Fc or GST; small tags and cut ends) PGTGDLVVQAPTQVSGFLGDSVTLPCYLQVPNMEVTHVSQLTWARHGESGSMAVFHRTQGPSYSESKRLEFLAARPGAELRNASLKMSGLRVEDEGNYTCEFVTFPQRSRSVDIWL	959	986					
CD155 variant IgV-Fc V11A, P18S, L79P, F91S, L104M, G111R (Fc fusion, not shown: a dimerising Fc or GST; small tags and cut ends) PGTGDVVAQAPTQVSGFLGDSVTLPCYLQVPNMEVTHVSQLTWARHGESGSMAVFHQTQGPSYSESKRLEFVAARPGAELRNASLRMSGLRVEDEGNYTCMFVTFPQRSRSVDIWL	923	974					
CD155 variant IgV-Fc P18L, K70E, L79P, F91S, V95A, G111R (Fc fusion, not shown: a dimerising Fc or GST; small tags and cut ends) WPPPGTGDVVVQAPTQVLGFLGDSVTLPCYLQVPNMEVTHVSQLTWARHGESGSMAVFHQTQGPSYSESERLEFVAARPGAELRNASLRMSGLRAEDEGNYTCLFVTFPQRSRSVDIWL	973	1120					Fold Change from CD155-ECD (CD96 [1]): 0.06 fold; Fold Change from CD155-ECD (CD226 (human) [2]): 0.07 fold
CD155 variant IgV-Fc V9I, V10I, P18S, F20S, T45A, L79P, F91S, L104M, F108Y, G111R, S112V (Fc fusion, not shown: a dimerising Fc or GST; small tags and cut ends) WPPPGTGDIIVQAPTQVSGSLGDSVTLPCYLQVPNMEVTHVSQLAWARHGESGSMAVFHQTQGPSYSESKRLEFVAARPGAELRNASLRMSGLRVEDEGNYTCMFVTYPQRVRSVDIWL	974	973					Fold Change from CD155-ECD (CD96 [1]): 0.06 fold; Fold Change from CD155-ECD (CD226 (human) [2]): 0.06 fold
CD155 variant IgV-Fc P18T, M36T, S65A, S67E, L79Q, A81T, F91S, G111R (Fc fusion, not shown: a dimerising Fc or GST; small tags and cut ends) PGTGDVVVQAPTQVTGFLGDSVTLPCYLQVPNTEVTHVSQLTWARHGESGSMAVFHQTQGPAYEESKRLEFVAARQGTELRNASLRMSGLRVEDEGNYTCLFVTFPQRSRSVDIWL	963	1130					
CD155 variant IgV-Fc P18T, D23G, Q60R, S67L, L79P, F91S, T107M, V115A (Fc fusion, not shown: a dimerising Fc or GST; small tags and cut ends) PGTGDVVVQAPTQVTGFLGGSVTLPCYLQVPNMEVTHVSQLTWARHGESGSMAVFHRTQGPSYLESKRLEFVAARPGAELRNASLRMSGLRVEDEGNYTCLFVMFPQGSRSADIWL			30900	109000	874	64100	
CD155 variant IgV-Fc V9L, P18F, T45A, S65A, S67V, R78K, L79V, F91S, T107M, S114T (Fc fusion, not shown: a dimerising Fc or GST; small tags and cut ends) PGTGDLVVQAPTQVFGFLGDSVTLPCYLQVPNMEVTHVSQLAWARHGESGSMAVFHQTQGPAYVESKRLEFVAAKVGAELRNASLRMSGLRVEDEGNYTCLFVMFPQGSRTVDIWL			154000	85600	812	130000	
CD155 variant IgV-Fc P18S, H59R, A76G, R78S, L79P (Fc fusion, not shown: a dimerising Fc or GST; large carriers; small tags and cut ends) PGTGDVVVQAPTQVSGFLGDSVTLPCYLQVPNMEVTHVSQLTWARHGESGSMAVFRQTQGPSYSESKRLEFVGASPGAELRNASLRMFGLRVEDEGNYTCLFVTFPQGSRSVDIWL			79400	44500	1010	131000	
CD155 variant IgV-Fc P18T, S52A, V57A, Q60R, Q62K, S65C, L79P, F91T, N100Y, T107M (Fc fusion, not shown: a dimerising Fc or GST; large carriers; small tags and cut ends) PGTGDVVVQAPTQVTGFLGDSVTLPCYLQVPNMEVTHVSQLTWARHGEAGSMAAFHRTKGPCYSESKRLEFVAARPGAELRNASLRMTGLRVEDEGYYTCLFVMFPQGSRSVDIWL				3790	908	187000	
